Results on two compounds are retold here after article PMC5698293, “Single-molecule visualization of conformational changes and substrate transport in the vitamin B12 ABC importer BtuCD-F” (Nature Communications, 2017).

The target of test [1] is BtuCDcys (cysteine mutant of the vitamin B12 ABC importer BtuCD: BtuC Q111C/W115L, cys-less BtuC and BtuD), reconstituted in liposomes (Escherichia coli) (UniProt P06609). In words: single-molecule fluorescence intensity change (TIRF microscopy); BtuCDcys labelled with Alexa Fluor 555 in 100-nm proteoliposomes (empty lumen, no ATP) tethered to glass by biotin-streptavidin; unlabelled BtuF added to the outside; 50 mM KPi, 200 mM KCl, pH 7.5; room temperature.

Test [2] has the same target.
Test [3] addresses T1, BtuCD-F (BtuCD with BtuF D141C), ATPase site (Escherichia coli, UniProt P06611, C180S).
T1 construct: gene btuD
As to conditions: 2 mM ATP, 10 mM MgCl2, pH 7.5, 30 °C; BtuCD WT with BtuF D141C.

With “BtuF D141C (periplasmic vitamin B12-binding protein, cys-less, signal peptide removed) (from UniProt P37028 23-266) (natural protein)”, in test [1], the percent of right-side-out complexes with an increase in fluorescence upon addition of BtuF was 82% and the percent of traces with an increase in fluorescence upon addition of BtuF is 45%. Also, in test [2], the fraction of inside-out complexes that respond to ATP by a decrease of the Alexa Fluor 555 fluorescence of BtuCDcys (corrected for orientation; unlabelled BtuF in the lumen) was determined as 18%; the fraction of liposomes in which the Alexa Fluor 555 fluorescence of BtuCDcys decreased upon addition of 2 mM ATP and 10 mM Mg2+ on the outside (unlabelled BtuF in the lumen; no events without BtuF) is 8%.
Take `Nc1ncnc2c1ncn2[C@@H]1O[C@H](COP(=O)(O)OP(=O)(O)OP(=O)(O)O)[C@@H](O)[C@H]1O` [ATP]: in test [3], the “NADH-coupled PK/LDH ATPase assay in proteoliposomes” value is “ATPase rate of various BtuCD-F mutants with or without fluorescent label reconstituted in liposomes”.
